Measured values published in patent US20160159906A1 (Genentech, published 2016).

T1: human CD79b (human, UniProt P40259 29-229)
T1 construct: Endogenous CD79b on BJAB / BJAB-luciferase cells (FACS) and on human B cells (killing assays); also called huCD79b; Igβ
T1 sequence: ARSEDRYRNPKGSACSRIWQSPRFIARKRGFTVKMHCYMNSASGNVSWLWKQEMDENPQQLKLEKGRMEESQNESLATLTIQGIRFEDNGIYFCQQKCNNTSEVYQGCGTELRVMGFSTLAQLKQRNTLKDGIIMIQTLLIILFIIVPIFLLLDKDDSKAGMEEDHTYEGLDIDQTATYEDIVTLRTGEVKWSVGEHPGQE

B1: CD79b.A7, dual arm, bivalent anti-CD79b antibody (antibody, V domains shown)
VH: QVQLQQPGVELVRPGASVKLSCKASGYTFTTYWMNWVRQRPGQGLDWIGMIDPSDSETHYNQMFKDKATLTVDKSSSTAYIQLNSLTSEDSAVYYCSRSLAFWGQGTLVTVSA
VL: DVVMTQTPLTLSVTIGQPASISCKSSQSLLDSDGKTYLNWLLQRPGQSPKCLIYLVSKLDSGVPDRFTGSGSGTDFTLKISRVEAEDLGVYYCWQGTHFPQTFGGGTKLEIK
notes: Mouse hybridoma clone; also called CD79.A7; muCD79b.A7

Columns and labels:
[1] = molecular target: B1; assay: FACS on BJAB cells, peptide competition of CD79b.A7 binding (data not shown)
[2] = molecular target: T1, human CD79b; assay: FACS on BJAB cells (FIG. 3B); dual arm, bivalent antibody
Protocol: BJAB cells were incubated with anti-CD79b antibody (bivalent, dual arm antibody) or anti-CD79b/CD3 TDB antibody as indicated for 30 minutes on ice. At the end of the incubation, cells were washed with ice cold FACS buffer (lx PBS, 2% BSA, 2mM EDTA), followed by incubation with PE-labeled mouse anti-human IgG antibody (BD bioscience #555787). Flow cytometry analysis was done on a BD LSR analyzer. Antibody binding was expressed as Mean Fluorescence Intensity (MFI) of PE fluorophore. A: The bivalent binding affinity of anti-CD79b clone 2F2 comparing to monovalent binding affinity of anti-CD79b clones 2F2, SN8v28, and SN8new (as K&H TDBs); B: bivalent binding affinity of anti-CD79b clones CD79b.F6 and CD79b.A7 comparing to monovalent binding of anti-CD79b clones CD79b.F6, CD79b.A7, and SN8v28 (as bisfab or K&H TDBs); C: bivalent binding affinity of anti-CD79b clone CD79b.A7.v14 comparing to monovalent binding of anti-CD79b clone CD79b.A7.v14 (as K&H TDBs).
The monovalent and bivalent anti-CD79b antibody binding affinity was also evaluated in order to better understand the contribution, if any, to B cell killing activity. Binding affinity of dual arm, bivalent anti-CD79b antibodies and bispecific anti-CD79b/ CD3 antibodies using BJAB cells were also analyzed. […]

binding result [1] | EC50 [2] | Binder
no binding | – | AKSEDLYPNPKGSACSRIWQS
– | 0.31 µg/mL | B1
